{"source": "the nanobody polyreactivity screen of Harvey et al. (2022)", "data": [{"test": "yeast display, Sf9 membrane polyspecificity reagent, FACS + sequencing; frameworks hold sequencing errors", "procedure,_shortened": "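Sorting gates, low and high (top ~1%), were placed on anti-HA fluorescence to track expression and on streptavidin fluorescence to track reagent binding. A clone's polyreactivity label is taken from the gate it came out of. The reagent was 10% biotinylated, detergent-solubilized Sf9 membrane, applied for 1 hour at 4 °C to galactose-induced yeast display cells.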", "values": [{"sequence": "QVQLVESGGGLVHAGGSLRLSCAASGIIFQYYLMGSYRPAPGKERELVAAIDKSGGSTYYADSVKGRFTISRDNAKNTVYLQMNSLKPEDTAVYYCAATSYAHKYYGYFGAIKYEYWGQGTQVTVSS", "polyreactivity (PSR sort gate)": "low polyreactivity"}, {"sequence": "QVQLVESGGGLVQAGGSLRLSCAASGYTFTINAMGWYRQAPGKERELVAAISWNGGRTYYADSVKGRFTISRDNAKNTDYVQMNSLQPEDTAVCYCNADTYSAGDYWGQGTQVTVSS", "polyreactivity (PSR sort gate)": "high polyreactivity"}, {"sequence": "QVQLVESGGGLVQAGGSLRLSCAASGSTFTLNAMGWYRQAPGKERELVADISWSSGRTYYADSVKGRFTISRDNAKNTVYLQMNSLKPEDTAVYYCATYDFWNVKFYAYYPEFDYWGQGTQVTVSS", "polyreactivity (PSR sort gate)": "low polyreactivity"}, {"sequence": "QVQLVESGGGLVQAGGSLRLSCAASGSIFTYNVMGWYRQAPGKERELVDAISWDGDSTYYSDSVKGRFTISRDNEKNTVYLQMKSLKQDDTAVYYCAADVHEKFQYDYWGQGNQVTVSS", "polyreactivity (PSR sort gate)": "high polyreactivity"}, {"sequence": "QDQLVESAGGLVQAGGSLRLSCAASGSIFTSNAMGWYRQAPGKETELVAAITSSGGSTYYADSVKGRFTISRDNAKNTVYVQMNSLKPEVTAVYYCAGAKFDLSFWLYYWGQGTQVTVSS", "polyreactivity (PSR sort gate)": "low polyreactivity"}, {"sequence": "QVQLEESGGGVVQAGGSLRLSCAASGRTLSHYAIGWYRQAPGKERELVAVISWSGTSTYYADSVKGRFTISRDNAKNTVYLQMNSLKPEDTAVYYCNADTYGYYLWTGAVSAGDDYWGQGTQVTVSS", "polyreactivity (PSR sort gate)": "low polyreactivity"}, {"sequence": "QVQLVESAGGLVQAGGSLRLSCAASGSIFGLYAMGWSRQAPGKDRELVAAITSAGSTYYADSVKGRFTISRDNAKNTVYLQMNTLKPEDTAVYYCAARGFYQFPSYYYWGKGTQVTVSS", "polyreactivity (PSR sort gate)": "high polyreactivity"}, {"sequence": "QVQLVESGGGLVQAGGSLRLSCAASGRIFDYYGMGWYRHAPGKERELVAAITSSGSRTYYADSVKGRFTISRDNAKNTVYLQMNSLKPEDTAVYYCARGGGRRKGLVDYWGQGTQVTVSS", "polyreactivity (PSR sort gate)": "low polyreactivity"}, {"sequence": "QVQLVESGGGLVQAGGSLRLSCAASGITFFPYAMGWYIQAPGKERELVADITWRGGRTYYADSVKGRFTISRDNAKNTVYLQMNSLKPEDTAVYYCAKVARQNWFRYNYDYWGQGTQVTVSS", "polyreactivity (PSR sort gate)": "high polyreactivity"}, {"sequence": "QVQLVESWGGLVQAGGSLRLSCAASGSIFSVYAMGWYRQAPGKERELVAAITSGGGTKYADSLKGRFTISRDNAKNTVYLQMNSLKPEDTAVYYCAAESFSDGSPYNYWGQGTQVTVSS", "polyreactivity (PSR sort gate)": "low polyreactivity"}, {"sequence": "QVQLVESGGGLVQAGGSLRLSCAASGYTFYANAMGWYRQAPGKEREFVASITWSGGSTYYPDSVKGRFTISRDNAKNTVYLQMNSLKPEDTAVYYCAAESWFKYDYWGQGTQETVSS", "polyreactivity (PSR sort gate)": "low polyreactivity"}, {"sequence": "QVQLVESGGGLVQAGGSLRLSCAASGRTFKSYAMGWNRQAPGQERELVATITRDGRTNYADSVKGRFTISRDNAKNTVYLQLNSLKPEDTAVYYCNADSRYRYDYWGQGTQVTVSS", "polyreactivity (PSR sort gate)": "low polyreactivity"}, {"sequence": "QVQLVESGGGLVQAGGILRLSCAASGSTFAGYAMGWYRQAPGKERELVATITYSGASTYYADSVKGRFTISRDNAKITVYLQMNSLKPEDTAVYYCGKKASYWWGYEYWGQGTQVTVSS", "polyreactivity (PSR sort gate)": "low polyreactivity"}, {"sequence": "QVQLVESGGGLVQAGGSLRLSCAASGRIFWDYAMGWYRQAPGKERELVAVITFSGDSTYYADSVKGRFTISRDNAKNTVYLQMNSLKPEDTAVYYCAAARAIRQFWYVATFEYWGQGTQVTVSS", "polyreactivity (PSR sort gate)": "low polyreactivity"}, {"sequence": "QVQLVESGGGLVQAGGSLRLSCAASGITLVTYAMGWYRQAPGKERELVAAISRSGGRTYYADSVKGRFTISRDNAKNTVDLQMNSLKPEDTAVYYCATRYHVGKDLYGYWGQGTQVTVSS", "polyreactivity (PSR sort gate)": "high polyreactivity"}, {"sequence": "QVQLVESGGGLVQAGGSLRLSCAASGRIIGNNAMGWYRHAPGKERELVATISSRGGSTYYAESVKGRFTISRDNAKNTVYFQMNSLKPEDTAVYYCKAYTTLAYDLDYWGQGTQVTVSS", "polyreactivity (PSR sort gate)": "high polyreactivity"}, {"sequence": "QVQLVESGGGLVQAGCSLRLSCAASGSILWHYAMGWYRPAPGKERELVAAISGSGRTNYADSVKGGFTISRDNAKNTVYLQLNSLKPEDTAVYYGARVHGTSESKYYYWGQGTQVTVSL", "polyreactivity (PSR sort gate)": "low polyreactivity"}, {"sequence": "QVQLQESGGGLVQAGGSLRLSCAASGYIFPRIYMGWYRQAPGKEREFDAGISYDAITNYADSVKGRYTISLDNAKNTVYLQMNSLKPEDTAVYYCAVSYYGTPLFTYWGQGTQVTVSS", "polyreactivity (PSR sort gate)": "high polyreactivity"}, {"sequence": "QVQLVESGGGLVQAGGSLRLTCAASGFTYTINGMGWYRQAPGKERELVAAINWRGGSTYYADSVKGRFTISRDNAKNTVYLQMNSLKPEDTAVYYCYAVAYIYSYAYPPYWGREHLNYWGQGTQVTVSS", "polyreactivity (PSR sort gate)": "low polyreactivity"}, {"sequence": "QVQLVESGGGLVQAGGSLRLSCAATGRIFTINAMGWYRQAPGKERELVAGITKSGGITYYADSVKGRFTISRDNAKNTVYLQMNSLKPEDTAVYYCAAPFNRWRARTGFDYWGQGTQVTVSS", "polyreactivity (PSR sort gate)": "high polyreactivity"}, {"sequence": "QVQLVESGGGLVQAGGSLRLSCAASGNTFVSNAMGWYRPAPGKERELVAAISSTGNTNYADSVKGRFTISRDNAKNTDYLQMNSLKPEDTAVYYCAKGDKRAYVAYKEGSWGQGTQVTVSS", "polyreactivity (PSR sort gate)": "low polyreactivity"}, {"sequence": "QVQLVESGGGLVQAGGSLRLSCAASGSTFSYYTMGWYRQATGKERELVAAISGSGGSTYYADSVKGRFTISRDNAKNTVYLQMKSLKPEDTAVYYCAALRAGSKCFDFWGQGTQVTVSS", "polyreactivity (PSR sort gate)": "high polyreactivity"}, {"sequence": "QVQLVESGGGLVQAGGRLRLICAASGRIYGYNTMGWYRQAPGKERDFDAAINSGGRTYYADSVKGRFTISRDNAKNTVYLQMNSLKPEDTAVYYCAAGKGRWISGLYYGARYDYWGQGTQVTVSS", "polyreactivity (PSR sort gate)": "high polyreactivity"}, {"sequence": "QVQLVESGGGLVQAGGSLRLSCADSGSTLQVNAMGWYRQAPGKERELVATISFSGGSTYYADSVKGRFTISRDNAKNTVYLQMNSLNPEDTAVYYCNADSFVSWYNQFWYQATYDYWGQGTQVTVSS", "polyreactivity (PSR sort gate)": "low polyreactivity"}, {"sequence": "HVQLVESGGGLVQEGRSLRLSCAASGFTFVGNAMGWYRQATGKERELVAAIRWSSGSTYYADSVKWRFTISRDNAKNTVYLQMNSLKPDDTAVYYCNAVYSVFYEYDYWGQGTQVTVSS", "polyreactivity (PSR sort gate)": "low polyreactivity"}, {"sequence": "QVQLVESGGGLVQAGGSLRLSCAASGSIFRYNAMGWYRQAPGKERELVAAITSGDSTYYADSVKGRFTISRDNAKNTVYLQMNSLKPEDTAVYYCAVTTWANTQWEDYWGHGTQVTVSS", "polyreactivity (PSR sort gate)": "low polyreactivity"}, {"sequence": "QVQLVESGGGLVQAGGSLRLSCAASGSTFQANDMGWYRQAPGKERELVAAISTGGSSTYYADSVKGRFTISRDNAKNTVYLQMNCLKPEDTAVYYCAVDGLGGREGYWGQGTQVTVSS", "polyreactivity (PSR sort gate)": "high polyreactivity"}, {"sequence": "QVQLEESGGGLVQAGGSLRLICAASAMGRYRQAPGKERELVAVINSTGGSTYYADSVKGRFTISRDNAKNTVYLQMYSLKPDDTAVYYCARVTRRGPGYTTLYCRYDYWGQGTQVTVSS", "polyreactivity (PSR sort gate)": "low polyreactivity"}, {"sequence": "QVQLVESGGGLVQAGGSLRLSCAASGLTLGRNAMGWYRQAPGKERELVAAISYGGGSTYYADSVKGRFTISRDNAKNTVYLQMNCLKPEDTAVYYCAADGWRTYGYYEYDYWGQGTQVTVSS", "polyreactivity (PSR sort gate)": "low polyreactivity"}, {"sequence": "QVQLVESGGGLVKAGGSLRLSCAATGRIFEYNTMGWYRQAPGKERELVAAITGGTGSTYYADSVKGRFTISRDNAKNTVYLKMNSLKPEDTAVYYCAADYTSPAFYSSFDYWGQGTQVTVSS", "polyreactivity (PSR sort gate)": "low polyreactivity"}, {"sequence": "QVQLVESGGGLVQAGGSLRLSCAASGRIFRDYVMGWYRQAPGKERELVAGITGSVDSTNYADSVKGRFTISRDNAKNTVYLQMNSLKPEDTAVYYCNAEFWRGTYRFGYWGQGTQVTVSS", "polyreactivity (PSR sort gate)": "low polyreactivity"}, {"sequence": "QVQLVESGGGLVQAGGSLRISCAASGSIFPFYAMGWYRQAPGKERELVAAISDRGGSTYYADSVKGRFTISRDNAKNTVYLQMNSLKPEDTAVYYCAKGGEVSQGYTDEYDYWGQGTQVTVSS", "polyreactivity (PSR sort gate)": "low polyreactivity"}, {"sequence": "QVQLVESGGGLVQAGGSLRLSCAASGRIFGSYAMGWYIQAPGTERELVAAINRRGGSTFYADSVKGRFTISRDNAKNSVYLQMNSLKPEDTAVYYCARRGYRQSGDYWGQGTQVTLSS", "polyreactivity (PSR sort gate)": "low polyreactivity"}, {"sequence": "QVQLVESGGGLVQAGGSLRISCASSGSTFGYYAIGWYRQAPGKESELVAAIRRSGGRTYYADSVKGRFTISRDNAKNTVYLQLNSLKPEDTAVYYCAKDGYSRRNSQKTPYDYWGQGTQVTVSS", "polyreactivity (PSR sort gate)": "low polyreactivity"}, {"sequence": "QVQLVESGGGLVQAGGSLRLSCAASGFTFWYYSMGWYRQAPGKERELVASISRTGGTTYYADSVKGRFTISRDNAKNTVYLQLNSLKPEDTAVYYCNARPKVYYREYDYWGQGTQVTVSS", "polyreactivity (PSR sort gate)": "high polyreactivity"}, {"sequence": "QVQIVESGGGLVQAGGSLRLSCAASGSTFARNAMGWYRQAPGKEREFVASIRWGGVSTYYADSVKGRFTISRDNAKNTVYLQMNSLKPEDTAVYYCATGRKNAAQRWGYYYWGQGTQVTVSS", "polyreactivity (PSR sort gate)": "high polyreactivity"}, {"sequence": "QVLLQESGGGLVQAGGSLRLSCAAIGTISTDIRMGWYRLAPGKEREFVASIDGCSTTYYADSVTGRFTISRDNAKNTVYLQMNSLKPEDTAMFYCAAREATEFYLYYWGQGTQVTVSS", "polyreactivity (PSR sort gate)": "low polyreactivity"}, {"sequence": "QVQQQESGGGLVQEGGSLRLSCAASGNISPPADMGWYRQAPGKERELVASIGTGGTTNYADSVKGRFTISRDNAKNTVYLQMNSLKPDDTAVFYCAAVRYEYNPYDYWGQGTQVTVSS", "polyreactivity (PSR sort gate)": "low polyreactivity"}, {"sequence": "QVQLVESGGGLFQAGGSLRLSCAASGSTFVANAMGWYRQAPGKERELVAAISSSGGSTYYADSVKGRFTISRDIAKNTVYLQMNSLKHDDTAVYYCNARSISRKKGYPPQRRDGYWGQGTQVTVSS", "polyreactivity (PSR sort gate)": "high polyreactivity"}, {"sequence": "QVQLVESGGGLDQAGGSLRLSSAASVSIFRYNTMGWYRPAPGKEREFVDSIRIGGSTYYADSVKGRFTISRDNAKNTVYLQMNSLKPEDTAVYYCAVRPYRSAGGSVTRGAYYYWGQGTQVTVSS", "polyreactivity (PSR sort gate)": "high polyreactivity"}, {"sequence": "QVQLVESGGGLVQAGGSLRLSCAATGSIFNKYAMGWYRQAPGTEREFVAAITQGGGRTYYADSVKGRFTISRDNAKNTVYLQMNSLKPEDTAVYYCAKPAYHSPDYDYWGQGTQVTVSS", "polyreactivity (PSR sort gate)": "high polyreactivity"}, {"sequence": "QVQLVESGGGLVQAGGSLRLSCAASGRIFPRNAMGWYRQAPGQERELVAAITKSGGSTYYADSVKGRFTISRDNAKNTVYLQMNSLKPEDTAVYYCNAVQYRNYYWGQGTQVTVSS", "polyreactivity (PSR sort gate)": "high polyreactivity"}, {"sequence": "QVQLVDSGGGLVQAGGSLRLSCAASGSIFLAYAMGWYRQAPGKEREFVAAISFSDGSTYYADSVKGRFTISRDNAKNTVYLQMNSLKPEDTAVYYCNKGASPDDYDFWGQGTQVTVSS", "polyreactivity (PSR sort gate)": "low polyreactivity"}]}]}
